Experimental data taken from patent publication US20060270591A1, “Androgen receptor coregulators” (priority 2002, published 2006).

T1: ER (Homo sapiens, UniProt P03372)
T1 construct: expressed in transfected cells; host or cells: DU145
T1 sequence (P03372 1-595): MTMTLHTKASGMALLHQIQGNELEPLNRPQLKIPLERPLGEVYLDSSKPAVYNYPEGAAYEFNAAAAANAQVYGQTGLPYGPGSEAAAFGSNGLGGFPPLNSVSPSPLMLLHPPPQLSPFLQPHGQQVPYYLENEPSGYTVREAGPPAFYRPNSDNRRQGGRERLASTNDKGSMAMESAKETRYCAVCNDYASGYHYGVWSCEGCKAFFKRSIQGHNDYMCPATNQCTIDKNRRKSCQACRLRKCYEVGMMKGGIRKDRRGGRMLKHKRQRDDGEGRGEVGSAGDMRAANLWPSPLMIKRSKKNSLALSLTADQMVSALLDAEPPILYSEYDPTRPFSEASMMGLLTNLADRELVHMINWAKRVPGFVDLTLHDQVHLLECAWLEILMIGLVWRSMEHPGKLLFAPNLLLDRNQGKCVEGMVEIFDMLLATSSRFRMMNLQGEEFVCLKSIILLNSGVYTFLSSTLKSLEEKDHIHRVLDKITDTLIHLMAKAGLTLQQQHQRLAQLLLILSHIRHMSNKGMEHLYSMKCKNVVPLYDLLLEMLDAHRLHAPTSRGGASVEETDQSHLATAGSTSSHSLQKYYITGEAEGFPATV


Assays:
PSA = assay: Western blot of endogenous PSA in stably transfected LNCaP cells; assay type: cell-based, human; details: stable LNCaP cells; +doxy; 1 nM DHT; vector alone without doxy = 100%
From the text: 14. […] (A) The effects of C′-ARA54 and mt-ARA54 on cell proliferation. […] Total cell number was counted by hemocytometer. Values represent the mean±SD of at least three determinations. (B) The effects of C′-ARA54 and mt-ARA54 on AR transcription activity. LNCaP cells stably transfected with pBIG2i (vector alone), pBIG2i-C′-ARA54, pBIG2i-mt-ARA54, or pBIG2i-fl-ARA54 were transiently transfected with MMTV-Luc. […] Values represent the mean±SD of at least three determinations. (C) The effects of C′-ARA54 and mt-ARA54 on PSA expression. […] The 33-kDa of protein was detected as indicated and quantitated by Collage Image Analysis software (Fotodyne). The normalized expression level in the first lane (vector alone without doxy treatment) was set as 100%. Values represent the mean±SD of three separate experiments.
395. […]

ER = biological target: T1, ER; assay: ER transcription activity, ERE-CAT reporter (Example 1); assay type: cell-based; details: DU145 cells
Method: 366. Human prostate cancer DU145 or PC3 cells, or human lung carcinoma cells NCI H1299 were grown in Dulbecco's minimal essential medium (DMEM) containing penicillin (25 U/ml), streptomycin (25˜g/ml), and 5% fetal calf serum (FCS). One hour before transfection, the medium was changed to DMEM with 5% charcoal-stripped FCS. Phenol red-free and serum-free media were used on the experiments employing E2 or TGF-β, respectively. A β-galactosidase expression plasmid, pCMV-β-gal, was used as an internal control for transfection efficiency.
367. Cells were transfected using the calcium phosphate technique (Yeh, et al. Molec. Endocrinol. 8:77-88, 1994). The medium was changed 24 hr posttransfection and the cells treated with either steroid hormones or hydroxyflutamide, and cultured for an additional 24 hr. Cells were harvested and assayed for CAT activity after the cell lysates were normalized by using β-galactosidaseas an internal control. Chloramphenicol acetyltransferase (CA) activity was visualized by PhosphorImager (Molecular Dynamics) and quantitated by ImageQuant software (Molecular Dynamics).

Row | Molecule | endogenous PSA expression (PSA) [%] | effect on ER transcription activity (ER)
1 | C′-ARA54: C-terminal region (amino acids 361-474) of ARA54 (protein, Homo sapien, C-terminal region (amino acids 361-474) of ARA54) RNEYLQADEANKRLLDQRYGKRVIQKALEEMESKEWLEKNSKSCPCCGTPIEKLDGCNKMTCTGCMQYFCWICMGSLSRANPYKHFNDPGSPCFNRLFYAVDVDDDIWEDEVED | 87 | 
2 | ARA54: 54 kDa protein that interacts with AR in an androgen-dependent manner; AR coactivator (protein) MSSEDREAQEDELLALASIYDGDEFRKAESVQGGETRIYLDLPQNFKIFVSGNSNECLQNSGFEYTICFLPPLVLNFELPPDYPSSSPPSFTLSGKWLSPTQLSALCKHLDNLWEEHRGSVVLFAWMQFLKEETLAYLNIVSPFELKIGSQKKVQRRTAQASPNTELDFGGAAGSDVDQEEIVDERAVQDVESLSNLIQEILDFDQAQQIKCFNSKLFLCSICFCEKLGSECMYFLECRHVYCKACLKDYFEIQIRDGQVQCLNCPEPKCPSVATPGQVKELVEAELFARYDRLLLQSSLDLMADVVYCPRPCCQLPVMQEPGCTMGICSSCNFAFCTLCRLTYHGVSPCKVTAEKLMDLRNEYLQADEANKRLLDQRYGKRVIQKALEEMESKEWLEKNSKSCPCCGTPIEKLDGCNKMTCTGCMQYFCWICMGSLSRANPYKHFNDPGSPCFNRLFYAVDVDDDIWEDEVED |  | less than 2 fold
